System: Saccharomyces cerevisiae
Experiment: transcriptional activation domain activity (GFP:mCherry ratio, weighted mean of sorted bins, harmonized to initial dataset scale) (arbitrary fluorescence ratio units); higher = stronger transcriptional activation
Settings: beta-estradiol 1 µM; induction time 4 h
Method in brief: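 The listed activation activity is a read-weighted mean of bin median fluorescence, averaged across barcodes and linearly mapped onto the initial dataset scale. Barcoded tiles, fused to an estradiol-inducible synthetic transcription factor, were integrated at URA3 in yeast diploids bearing a GFP reporter. Cells were held 4 hours at 30 °C in SC with 1 uM beta-estradiol, sorted into 8 GFP:mCherry bins, and sequenced, and tiles with fewer than 50 reads were excluded.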

Sequence	transcriptional activation domain activity
MGNVQRWAVAIKNVIAVLVVCLRFITDTFIIATSEYPRGGFLVLLHIRMLFML	81400
MGPISFFFLFWRYYRLYCLFFVFFFFSTGLRWHDTLFHFLSFLLLGLPLLKRS	82100
MGPMMQQIQQPCGDCRGEGEIINAKDKCKACNARKVTQTRKVLEVHIDRGMKD	45700
MGPPFFDGFSDGSSDLGSLFLPNGDSANWDLSWSAETFWQLENEYTSLPSFFD	144000
MGPWICQTQPTSYLILSGLVHSFLKSSQGFISYIFSTLVHMTFLVFLYIHLFR	58800
MGQVGVFALHKVLYGIIPLFEIQTCSFYPLLVSLWHIFYLLVYIVMFMRLIIL	72300
MGRDSSLPYFNSPSFWVAFFWSGAGLFFSFFTGFIYFPEQIFFPLFFFLFFED	58800
MGREHSAPLDSSSKQGAPRRTQRAQLPHNSLCRMGLKTNMKWTHSIRQDKRAE	35600
MGRELVLFIFFFFLFFFPFFFPLLLPLLLSSVRLVDIFLLKKYYLINLSLAYP	37400
MGRLGTLGLSQEQLDNLRYYKYAAVDRSQLTKYVLRHYWNWAITLFPTWIAPN	32100
MGRLLLLICFNTSGRLPFLLPLLLFFFFLLFFLYPPLHIFSFSFSLSPSNVPP	35200
MGRVGGLFIMEGCLCVYRLLLYPSSCVWVSDTRGWLWLWWLWWWVVVVVWGVC	44600
MGRVVGVGSFYVWICHFFYIFSFFFSPMMNWTGSGLVGCVMALLYFILSFSFS	46200
MGSCNLPFGHISLARGTLVLIRGWSFFLASQPPYGFIRWILFRSSFYFLCSWR	55900
MGSDPFGGLNLFSTALFPLYLYCLTLDPPNYSNWLIFLSQHFLFSGLFRVLCF	56600
MGSFLPFLFFSFCYTFVCYFFSIIALVVFVYFTLAVEFFFFFFGCLRCLLLWL	57600
MGSGDTFFYWKLFSFSLSLLTRFSPLYFGWPFLKTIPLFMYFFLCRVLPLFLM	53400
MGSGFCNGVFFYYLFFFFISLCVILSSFLLFFFSLPLFLGGLFFSTFLFLDAR	58900
MGSLLLFMGIDEGSFLCGFFFSIFFLLLAFFTSYGCFCDKFFFLLYLLLLLRK	44300
MGSNANKRREDGPKKEQLQKRVLHIRSVARSTKGGKIRSSSAIVVVGNGNGVG	42400
MGSQLPHLQLSDTDGAGPMKRRRPALACVECRRRKVKCDRKKPCSPCTRIKSL	69900

Sequence	transcriptional activation domain activity
MGSTIVFSVVFIWFFLVSFQQLLPFPKGTFFLLFLFPFSLSLPESSCIIFLAF	51800
MGTLLFVFMYYGWAFFLDYFIWCFVVSLCFWYKVCLAVLLLAFDVYCHLWCMI	60200
MGTLLLVFMHYGWTFFLDCCLWWYMMSLGFWYKVCLPLLLLDFHVYCHLWYMI	53600
MGTLYPLVLPWFTGSYFLDIGIDFVFQKDTSYLGYILHTLHAPFLLSCLFLVL	65000
MGTTGWRTRAIPYGFVFFYFILVMSLFFSSPLLTTTAVFILFYLLFLFSCYSS	36000
MGVCGVFISFLAWGGCLVLLNVRLHLRGLIFSLSNLFYDTVHVTCIWFFLFRL	65300
MGVCLCVALFAPFFSLFFFLSPAPYCSGKIWHLSILFLLYHCRRVLPLFILAC	49600
MGVFILFAFLFFLMFVLLHFFLLLSFFLLSSLMGVYFFPHSMITYMFSFGLRS	44100
MGVICIFICFAVGLSTIITNLLSWLLLFSIICLICAPIILFVEVPFLLRICPT	61400
MGVLFCVWSKFMGLHYSLVFFFVYPFSHCFSLLFPFFFFTIMSWYIVFYHTCF	70300
MGVLFFSFLPWSFRLFFSFFFYFGLFFFFEYDFVLFLVFCVLVIGPVWLLAGC	60200
MGVLFLLCPCLCVVPLFCIAMQWSIGLYLCLDQRFPVLYTYFFILFSSILFCS	48300
MGVLLFGFWVCCCTKLLFCHYCFFFFLFLHFFFLATVLYIVNCCMLLLVLLLG	67700
MGVLLVDFLTHWILFLFCSWFMLFSFGRFFGFSGSLLVRFLPDSDLLMFLVLL	70600
MGVLSFRFLFWSFFFLSVMFLFLFFVFLLGYWFWFWFWLLVWLLVGFCCLVFF	38500
MGVWFGMAVLFLFLHLGFFLFCYFICLLLDNSFFLSWPLETVRALQMGLQIGG	36700
MGVYLQKLGWGYRVWRFLFWMGLSLVSFLFFICCFSLSVHTCFFFFWLGRLGW	27300
MGWFTFAFWYPPHLLYFLFYLPPPPLFPSHSLEFFSFCICNLTMFILSTFFFA	50200
MGWGAFWRWLVGCSLVLYVFYPLLSYLRCFILVFRFVYIYLPLTDCFLLFISK	53300
MGWGGASGFSPVVGIFFFTGPLLLFLSTVFLWIQAQFFPMMVCGLFCVFWLSF	60500
MGWVHLIGRCLILPVHYVVPFFIFFYFAYTSILTTSIGLLGMDLSLRLVFLCS	51000

Sequence	transcriptional activation domain activity
MGYCFFLYIYIPFTLLFSNTCRLVGVFLSFYICMIGYSLLWLPNLWLAFFLIN	37700
MGYGEQRGSFGGRGGRGGSRGGRGGFGGGDRFNQGPPSEVVVVGAFVSACEGE	52900
MGYQPLFLCFVLSSPCLLLFPVLHILQPASSFSLLCLELFVRWVTYLLLLFSS	71800
MGYYVVLLTELLISCLCSPSLLYSPFLLICDSFPCSRRVFKLAFILFYILIVT	43400
MHAFQAGRDMPLVRRRSGGCLESDGGGEERVLRCETEECMSKEGVVSVGAGAD	35500
MHASFIFLSSTSGVIHTYILYLDLVAYFLLSLGGFVLIIGFWRWGFCCFFLPS	69100
MHCEGCIQVIYRCYCLLIFLFFYYVCLFCLYILGKQLGLVHVFFYKYWCFFIL	53100
MHCIVVSCSLFLWFVFCKYLIYFKNAFTDISVFLGFLFGWFLSLLFHLSIVFG	48500
MHCRDIMRFNEMELAKLRLLLGSNCQALRNTASLLSRNLACSKIIYLSVRLGE	21000
MHCSLPSGLSFGCQYALVHLLFVRRISIWGLLILQIFLGTRVFYHVFILRVVR	62700
MHCVLALSLGLLSRVIVFYGCSFRGKLHFMMFWEALYLLLIFMRMLWLLFFIT	51000
MHDAISFVLHLRLFAHVVGTSLSDGGPVFLALCMLPPLMRHFVSMSSNLWTTA	70700
MHDTWFPFLAIVLLFYPTILGPGTFSIYFPHSALPPYMSLHLYVHARFLLLLL	65800
MHEYARVALFGTVGVPLRVFISPAFLRALRSFAPHVIHLVDPILLRMQAHIAL	48700
MHFAVKVKMQFFFFPSLSFFSSVVFISPPPPFVFLWHMGFLACLLFRSLVVFF	57000
MHFAVKVKMQLFFFIFSLTLFFFLWYFFFFFPVVYGVFSSGVLGVFFSLFSFF	66200
MHFFSFFFLCFYFYFLSSLLGSMDYTALYFPFFFCSNYRRCYMCFLVEPFFFL	78500
MHFLNFLFYCVYYLPLNHTIFFYFVWLTLTLLFFFFLVVYIHISSISSFFYIC	56600
MHFVWLYHPFAKYGDFYLILSFTYLRTITDCCSCCIMTTYGMLRIFPIFVILV	79100
MHGTGVFFGCLGIHIFFFLSSLLFHVDIFVIRDIFFNFLLFFFIFFLRILYSM	42700
MHHELLRPILRLGHLMWTICFWMRRIMINAESPYRKTILHVRRSNWLFRRIIT	81600

Sequence	transcriptional activation domain activity
MHILFLSLFFCFTLRFSLILLFGVIWLVKAFKYCHLVYWKLITYFNLLIFALY	54800
MHILVELAVFLICRCSQIWRTWVQGGKLAISHNKLVRPTFFRRLLHCIWLFRL	72200
MHITCPRLWGHCSWCVVLPFIFHTFLYCIPTFCCFLVHISAILFIGFSFLGSL	55600
MHIVVTLCYFMTYLKPRRKDIYQRVQRWLPKIWTKFWQEIKRNDSFSYVFVDK	49500
MHKCCLLDFLMLSTNYADVFYFHKLCIILTSFFSRLNPLLSIGLNLLLFCLLI	57000
MHKHFVVTLIMFFYFFFLFLLRGRCWNCTPLPTLIPSTASGVLLIVFLSYVVH	26400
MHLLTFTIPSYRAVCKVFPFLFWLSLFLTHWFVYSFSFLQAFFSFCFTWAWCV	69900
MHLQGFVAWMFYILNCLAFSLRIISHWIFPIYLIWGIGLVENDYSSIDSWFLL	42100
MHNSRSSFLVSCFFIYFFSLLVHCEGVLILTPIPFQNHLVSILECFLFYLFLF	51600
MHPCTLLSFRVFAYFYLLLIPPPPLLYSYLSYTNIYSYIIVLLLLLLFYVTIV	54800
MHPFSPHCLSLSLLLKFSQLFNISFFLLVMHFLWLDILGFFFILFPNHFPMFG	43800
MHPILSCLVSIVCPIMHILLLAVLLFLNTLSRLILAFTYTTFSLFVFSVQLTP	71500
MHPPTHYRLLSPPLFPYIFFFQVGFLLRFFSLFFSLVSLVLILCVTFFFFFFG	57500
MHRATNYYFSFSALLYLVFIFLRCSLALGLFFCFMFLSFEFFCFLMVLCLFCI	33200
MHRELTGYFFSFFFFLFFFSFFIHISRLAVYIWDWVTSLHFFIFVILNILGSS	66700
MHRLHYLMCIIIGVRLTAVVGLGRHRVVYVYCFCFSDTSRKMVRQDGIKLFTA	43200
MHRPVCSGQSPPFFSPTSPIHFILPFLFSIFSFPHGAGVSMHIGRLVLLFFFF	59300
MHSDMYLHPTLLSFLSVQFSMGFLFFLCRRYLYFSEWLLVVLCVFVSRFIGFI	38400
MHSGPSFSCFFSVFPSFIFGLSTSSTLYIYFFFLLLDQLFVPSFFALLLLFLP	41400
MHSMRHAPSSFFLLFRPVIVFMAVVFSNFYLLPLLFSLLYVILCFFLYILFVS	34600
